The binders below were run against T1, CD3 (antigen of the anti-CD3 antibody, coated in the ELISA of Examples 1-3) (Homo sapiens (Human), UniProt P07766 23-126) (assay: binding activity of the conjugated mutant compared with the wild-type antibody (ELISA as in Example 1)).
T1 construct: also called antibody antigen
Description: (§1) In the present invention, the activity of each mutant with a point mutation compared to that of its initial antibody is detected by ELISA. Specifically, the 96-well plates were coated with antibody antigen overnight, then blocked with 1% BSA blocking agent (Thermo Fisher) at 37° C. for 2 hours, and washed with PBST for 3 times. The corresponding antibody or the corresponding mutant was added for binding at 37° C. for 1 hour, and then washed with PBST for 3 times. HRP enzyme-linked anti-human IgG was added for binding at 37° C. for 1 hour, and washed with PBST for 3 times. TMB substrate (Solarbio., Inc.) was used to detect absorbance at 450 nm. The effect on mutant binding strength was calculated through EC50 mutation/EC50 wild-type.

T1 sequence (P07766 23-126 limits assumed, form in doubt): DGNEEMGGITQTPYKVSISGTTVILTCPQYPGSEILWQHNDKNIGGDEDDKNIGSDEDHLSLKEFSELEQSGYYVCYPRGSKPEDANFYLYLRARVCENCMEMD

Binder	Blocking fold after conjugation (+20K) [fold]
anti-CD3 antibody mutant VH-D68C conjugated with Molecule I (+20K) (antibody, V domains shown, Cys 68 conjugated with Molecule I (+20K), also called VH-68 D68 (+20K)) VH: EVQLVESGGGLVQPGGSLRLSCAASGFTFSTYAMNWVRQAPGKGLEWVGRIRSKYNNYATYYADSVKCRFTISRDDSKNSLYLQMNSLKTEDTAVYYCARHGNFGNSYVSWFAYWGQGTLVTVSS VL: QTVVTQEPSLTVSPGGTVTLTCRSSTGAVTTSNYANWVQQKPGQAPRGLIGGTNKRAPGVPARFSGSLLGDKAALTLLGAQPEDEAEYFCALWYSNLWVFGGGTKLTVL	4
anti-CD3 antibody mutant VH-F104C conjugated with Molecule I (+20K) (antibody, V domains shown, Cys 104 conjugated with Molecule I (+20K), also called VH-104 F104 (+20K)) VH: EVQLVESGGGLVQPGGSLRLSCAASGFTFSTYAMNWVRQAPGKGLEWVGRIRSKYNNYATYYADSVKDRFTISRDDSKNSLYLQMNSLKTEDTAVYYCARHGNCGNSYVSWFAYWGQGTLVTVSS VL: QTVVTQEPSLTVSPGGTVTLTCRSSTGAVTTSNYANWVQQKPGQAPRGLIGGTNKRAPGVPARFSGSLLGDKAALTLLGAQPEDEAEYFCALWYSNLWVFGGGTKLTVL	13
anti-CD3 antibody mutant VH-F112C conjugated with Molecule I (+20K) (antibody, V domains shown, Cys 112 conjugated with Molecule I (+20K), also called VH-112 F112 (+20K)) VH: EVQLVESGGGLVQPGGSLRLSCAASGFTFSTYAMNWVRQAPGKGLEWVGRIRSKYNNYATYYADSVKDRFTISRDDSKNSLYLQMNSLKTEDTAVYYCARHGNFGNSYVSWCAYWGQGTLVTVSS VL: QTVVTQEPSLTVSPGGTVTLTCRSSTGAVTTSNYANWVQQKPGQAPRGLIGGTNKRAPGVPARFSGSLLGDKAALTLLGAQPEDEAEYFCALWYSNLWVFGGGTKLTVL	4
anti-CD3 antibody mutant VH-M34C conjugated with Molecule I (+20K) (antibody, V domains shown, Cys 34 conjugated with Molecule I (+20K), also called VH-34 M34 (+20K)) VH: EVQLVESGGGLVQPGGSLRLSCAASGFTFSTYACNWVRQAPGKGLEWVGRIRSKYNNYATYYADSVKDRFTISRDDSKNSLYLQMNSLKTEDTAVYYCARHGNFGNSYVSWFAYWGQGTLVTVSS VL: QTVVTQEPSLTVSPGGTVTLTCRSSTGAVTTSNYANWVQQKPGQAPRGLIGGTNKRAPGVPARFSGSLLGDKAALTLLGAQPEDEAEYFCALWYSNLWVFGGGTKLTVL	5
anti-CD3 antibody mutant VH-S53C conjugated with Molecule I (+20K) (antibody, V domains shown, Cys 53 conjugated with Molecule I (+20K), also called VH-53 S53 (+20K)) VH: EVQLVESGGGLVQPGGSLRLSCAASGFTFSTYAMNWVRQAPGKGLEWVGRIRCKYNNYATYYADSVKDRFTISRDDSKNSLYLQMNSLKTEDTAVYYCARHGNFGNSYVSWFAYWGQGTLVTVSS VL: QTVVTQEPSLTVSPGGTVTLTCRSSTGAVTTSNYANWVQQKPGQAPRGLIGGTNKRAPGVPARFSGSLLGDKAALTLLGAQPEDEAEYFCALWYSNLWVFGGGTKLTVL	3

What follows are binders tested against T1, CD3 (antigen of the anti-CD3 antibody, …) (assay: ELISA, coated antigen, anti-human IgG-HRP; reference wild-type antibody).
Description: as §1
According to the above method, the binding activity of anti-CD3 antibody SP34 mutant with mutations at different position shown in Table 1 was detected.

Binder	Binding strength of mutants (EC50 mutant/EC50 wild-type) [fold]
anti-CD3 antibody mutant VH-Y61C (antibody, V domains shown, Cys point mutant of the humanized anti-CD3 antibody; also called VH-61) VH: EVQLVESGGGLVQPGGSLRLSCAASGFTFSTYAMNWVRQAPGKGLEWVGRIRSKYNNYATCYADSVKDRFTISRDDSKNSLYLQMNSLKTEDTAVYYCARHGNFGNSYVSWFAYWGQGTLVTVSS VL: QTVVTQEPSLTVSPGGTVTLTCRSSTGAVTTSNYANWVQQKPGQAPRGLIGGTNKRAPGVPARFSGSLLGDKAALTLLGAQPEDEAEYFCALWYSNLWVFGGGTKLTVL	5.1
anti-CD3 antibody mutant VH-D68C (antibody, V domains shown, Cys point mutant of the humanized anti-CD3 antibody; also called VH-68) VH: EVQLVESGGGLVQPGGSLRLSCAASGFTFSTYAMNWVRQAPGKGLEWVGRIRSKYNNYATYYADSVKCRFTISRDDSKNSLYLQMNSLKTEDTAVYYCARHGNFGNSYVSWFAYWGQGTLVTVSS VL: QTVVTQEPSLTVSPGGTVTLTCRSSTGAVTTSNYANWVQQKPGQAPRGLIGGTNKRAPGVPARFSGSLLGDKAALTLLGAQPEDEAEYFCALWYSNLWVFGGGTKLTVL	2
anti-CD3 antibody mutant VH-F104C (antibody, V domains shown, Cys point mutant of the humanized anti-CD3 antibody; also called VH-104) VH: EVQLVESGGGLVQPGGSLRLSCAASGFTFSTYAMNWVRQAPGKGLEWVGRIRSKYNNYATYYADSVKDRFTISRDDSKNSLYLQMNSLKTEDTAVYYCARHGNCGNSYVSWFAYWGQGTLVTVSS VL: QTVVTQEPSLTVSPGGTVTLTCRSSTGAVTTSNYANWVQQKPGQAPRGLIGGTNKRAPGVPARFSGSLLGDKAALTLLGAQPEDEAEYFCALWYSNLWVFGGGTKLTVL	1
anti-CD3 antibody mutant VH-F112C (antibody, V domains shown, Cys point mutant of the humanized anti-CD3 antibody; also called VH-112) VH: EVQLVESGGGLVQPGGSLRLSCAASGFTFSTYAMNWVRQAPGKGLEWVGRIRSKYNNYATYYADSVKDRFTISRDDSKNSLYLQMNSLKTEDTAVYYCARHGNFGNSYVSWCAYWGQGTLVTVSS VL: QTVVTQEPSLTVSPGGTVTLTCRSSTGAVTTSNYANWVQQKPGQAPRGLIGGTNKRAPGVPARFSGSLLGDKAALTLLGAQPEDEAEYFCALWYSNLWVFGGGTKLTVL	1.2
anti-CD3 antibody mutant VH-M34C (antibody, V domains shown, Cys point mutant of the humanized anti-CD3 antibody; also called VH-34) VH: EVQLVESGGGLVQPGGSLRLSCAASGFTFSTYACNWVRQAPGKGLEWVGRIRSKYNNYATYYADSVKDRFTISRDDSKNSLYLQMNSLKTEDTAVYYCARHGNFGNSYVSWFAYWGQGTLVTVSS VL: QTVVTQEPSLTVSPGGTVTLTCRSSTGAVTTSNYANWVQQKPGQAPRGLIGGTNKRAPGVPARFSGSLLGDKAALTLLGAQPEDEAEYFCALWYSNLWVFGGGTKLTVL	1.1
anti-CD3 antibody mutant VH-S53C (antibody, V domains shown, Cys point mutant of the humanized anti-CD3 antibody; also called VH-53) VH: EVQLVESGGGLVQPGGSLRLSCAASGFTFSTYAMNWVRQAPGKGLEWVGRIRCKYNNYATYYADSVKDRFTISRDDSKNSLYLQMNSLKTEDTAVYYCARHGNFGNSYVSWFAYWGQGTLVTVSS VL: QTVVTQEPSLTVSPGGTVTLTCRSSTGAVTTSNYANWVQQKPGQAPRGLIGGTNKRAPGVPARFSGSLLGDKAALTLLGAQPEDEAEYFCALWYSNLWVFGGGTKLTVL	1.2
anti-CD3 antibody mutant VH-W111C (antibody, V domains shown, Cys point mutant of the humanized anti-CD3 antibody; also called VH-111) VH: EVQLVESGGGLVQPGGSLRLSCAASGFTFSTYAMNWVRQAPGKGLEWVGRIRSKYNNYATYYADSVKDRFTISRDDSKNSLYLQMNSLKTEDTAVYYCARHGNFGNSYVSCFAYWGQGTLVTVSS VL: QTVVTQEPSLTVSPGGTVTLTCRSSTGAVTTSNYANWVQQKPGQAPRGLIGGTNKRAPGVPARFSGSLLGDKAALTLLGAQPEDEAEYFCALWYSNLWVFGGGTKLTVL	2
anti-CD3 antibody mutant VL-K55C (antibody, V domains shown, Cys point mutant of the humanized anti-CD3 antibody; also called VL-55) VH: EVQLVESGGGLVQPGGSLRLSCAASGFTFSTYAMNWVRQAPGKGLEWVGRIRSKYNNYATYYADSVKDRFTISRDDSKNSLYLQMNSLKTEDTAVYYCARHGNFGNSYVSWFAYWGQGTLVTVSS VL: QTVVTQEPSLTVSPGGTVTLTCRSSTGAVTTSNYANWVQQKPGQAPRGLIGGTNCRAPGVPARFSGSLLGDKAALTLLGAQPEDEAEYFCALWYSNLWVFGGGTKLTVL	0.9
anti-CD3 antibody mutant VL-N54C (antibody, V domains shown, Cys point mutant of the humanized anti-CD3 antibody; also called VL-54) VH: EVQLVESGGGLVQPGGSLRLSCAASGFTFSTYAMNWVRQAPGKGLEWVGRIRSKYNNYATYYADSVKDRFTISRDDSKNSLYLQMNSLKTEDTAVYYCARHGNFGNSYVSWFAYWGQGTLVTVSS VL: QTVVTQEPSLTVSPGGTVTLTCRSSTGAVTTSNYANWVQQKPGQAPRGLIGGTCKRAPGVPARFSGSLLGDKAALTLLGAQPEDEAEYFCALWYSNLWVFGGGTKLTVL	1
anti-CD3 antibody mutant VL-N96C (antibody, V domains shown, Cys point mutant of the humanized anti-CD3 antibody; also called VL-96) VH: EVQLVESGGGLVQPGGSLRLSCAASGFTFSTYAMNWVRQAPGKGLEWVGRIRSKYNNYATYYADSVKDRFTISRDDSKNSLYLQMNSLKTEDTAVYYCARHGNFGNSYVSWFAYWGQGTLVTVSS VL: QTVVTQEPSLTVSPGGTVTLTCRSSTGAVTTSNYANWVQQKPGQAPRGLIGGTNKRAPGVPARFSGSLLGDKAALTLLGAQPEDEAEYFCALWYSCLWVFGGGTKLTVL	1
anti-CD3 antibody mutant VL-R56C (antibody, V domains shown, Cys point mutant of the humanized anti-CD3 antibody; also called VL-56) VH: EVQLVESGGGLVQPGGSLRLSCAASGFTFSTYAMNWVRQAPGKGLEWVGRIRSKYNNYATYYADSVKDRFTISRDDSKNSLYLQMNSLKTEDTAVYYCARHGNFGNSYVSWFAYWGQGTLVTVSS VL: QTVVTQEPSLTVSPGGTVTLTCRSSTGAVTTSNYANWVQQKPGQAPRGLIGGTNKCAPGVPARFSGSLLGDKAALTLLGAQPEDEAEYFCALWYSNLWVFGGGTKLTVL	1.5
anti-CD3 antibody mutant VL-W93C (antibody, V domains shown, Cys point mutant of the humanized anti-CD3 antibody; also called VL-93) VH: EVQLVESGGGLVQPGGSLRLSCAASGFTFSTYAMNWVRQAPGKGLEWVGRIRSKYNNYATYYADSVKDRFTISRDDSKNSLYLQMNSLKTEDTAVYYCARHGNFGNSYVSWFAYWGQGTLVTVSS VL: QTVVTQEPSLTVSPGGTVTLTCRSSTGAVTTSNYANWVQQKPGQAPRGLIGGTNKRAPGVPARFSGSLLGDKAALTLLGAQPEDEAEYFCALCYSNLWVFGGGTKLTVL	1.8
anti-CD3 antibody mutant VL-Y34C (antibody, V domains shown, Cys point mutant of the humanized anti-CD3 antibody; also called VL-34) VH: EVQLVESGGGLVQPGGSLRLSCAASGFTFSTYAMNWVRQAPGKGLEWVGRIRSKYNNYATYYADSVKDRFTISRDDSKNSLYLQMNSLKTEDTAVYYCARHGNFGNSYVSWFAYWGQGTLVTVSS VL: QTVVTQEPSLTVSPGGTVTLTCRSSTGAVTTSNCANWVQQKPGQAPRGLIGGTNKRAPGVPARFSGSLLGDKAALTLLGAQPEDEAEYFCALWYSNLWVFGGGTKLTVL	1.2
anti-CD3 antibody mutant VL-Y94C (antibody, V domains shown, Cys point mutant of the humanized anti-CD3 antibody; also called VL-94) VH: EVQLVESGGGLVQPGGSLRLSCAASGFTFSTYAMNWVRQAPGKGLEWVGRIRSKYNNYATYYADSVKDRFTISRDDSKNSLYLQMNSLKTEDTAVYYCARHGNFGNSYVSWFAYWGQGTLVTVSS VL: QTVVTQEPSLTVSPGGTVTLTCRSSTGAVTTSNYANWVQQKPGQAPRGLIGGTNKRAPGVPARFSGSLLGDKAALTLLGAQPEDEAEYFCALWCSNLWVFGGGTKLTVL	1

Source: US20260258127A1 (YING MAI DE MEDICAL TECHNOLOGY GUANGDONG, published 2026)
